Test [1] has as its target T1, mouse 4-1BBL incorporated into the envelope of BC-PIV particles (mouse, UniProt P41274 1-309, Membrane-anchored type II protein on the BC-PIV envelope; paragraph 280 expects trimers that associate into higher multimers; one protomer is given.).
T1 construct: Whole membrane protein on virus particles coated on the ELISA plate; also called mouse 4-1BBL-carrying BC-PIV; BC-PIV/4-1BBL
T1 sequence: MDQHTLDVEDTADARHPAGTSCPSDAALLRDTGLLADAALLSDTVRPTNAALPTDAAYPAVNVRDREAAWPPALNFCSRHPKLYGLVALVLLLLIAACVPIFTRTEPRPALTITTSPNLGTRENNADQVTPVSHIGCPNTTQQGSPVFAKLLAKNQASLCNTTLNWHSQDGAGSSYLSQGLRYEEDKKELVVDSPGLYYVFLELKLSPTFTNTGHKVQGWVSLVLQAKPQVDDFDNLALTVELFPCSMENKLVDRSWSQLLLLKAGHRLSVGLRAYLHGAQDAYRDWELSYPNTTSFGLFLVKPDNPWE
Put plainly: ELISA: 1x10^6 BC-PIV particles coated per well, receptor-Fc added at 1, 10, 50, 100 ng, HRP-Protein A, absorbance at 450 nm. (In general: ELISA stands for enzyme-linked immunosorbent assay.)

The target of test [2] is T2, mouse OX40L incorporated into the envelope of BC-PIV particles (mouse, UniProt P43488 1-198, Membrane-anchored type II protein on the BC-PIV envelope, expected as a homotrimer; one protomer is given.).
T2 construct: Whole membrane protein on virus particles coated on the ELISA plate (1x10^6 particles per well); The form 'whole, on cells' is the nearest choice; the carrier is a virus envelope; also called mouse OX40L-carrying BC-PIV; BC-PIV/OX40L
T2 sequence: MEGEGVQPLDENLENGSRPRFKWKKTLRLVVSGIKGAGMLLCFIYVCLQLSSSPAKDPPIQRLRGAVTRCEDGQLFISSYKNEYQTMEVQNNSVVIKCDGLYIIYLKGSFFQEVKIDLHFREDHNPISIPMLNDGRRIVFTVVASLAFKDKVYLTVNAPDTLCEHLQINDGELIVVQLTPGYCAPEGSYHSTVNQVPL
The test is described as above.

Test [3] deals with T3, human OX40 receptor (BioLegend Inc, Cat #780804) (human, UniProt P43489 29-214).
T3 construct: Bought reagent; No Fc tag is stated for this one, but detection was by HRP-Protein A 'adsorbed on the human Fc region', so a human Fc tag is likely; also called human OX40 receptor protein
T3 sequence: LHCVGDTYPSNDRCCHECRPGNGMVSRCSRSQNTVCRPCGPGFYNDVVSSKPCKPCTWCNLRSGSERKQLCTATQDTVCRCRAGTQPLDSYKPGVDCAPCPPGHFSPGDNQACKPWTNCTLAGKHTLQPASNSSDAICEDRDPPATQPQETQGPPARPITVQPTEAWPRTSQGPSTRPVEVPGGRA
The test can be described thus: ELISA: 1x10^6 BC-PIV particles coated per well, receptor added at 1, 10, 50, 100 ng, HRP-Protein A, absorbance at 450 nm.

B1: mouse 4-1BB receptor (C-terminal human IgG Fc Tag; BioLegend Inc, Cat #756704) (Fc fusion)
chain: VQNSCDNCQPGTFCRKYNPVCKSCPPSTFSSIGGQPNCNICRVCAGYFRFKKFCSSTHNAECECIEGFHCLGPQCTRCEKDCRPGQELTKQGCKTCSLGTFNDQNGTGVCRPWTNCSLDGRSVLKTGTTEKDVVCGPPVVSFSPSTTISVTPEGGPGGHSLQVL
notes: Bought reagent; also called mouse 4-1BB receptor protein; not shown: C-terminal human IgG Fc tag
On to B1, for which, in test [1], the binding result was “binds”.

B2: trimeric mouse OX40 receptor (C-terminal human IgG Fc Tag; BioLegend Inc, Cat #78904) (Fc fusion)
chain: VTARRLNCVKHTYPSGHKCCRECQPGHGMVSRCDHTRDTLCHPCETGFYNEAVNYDTCKQCTQCNHRSGSELKQNCTPTQDTVCRCRPGTQPRQDSGYKLGVDCVPCPPGHFSPGNNQACKPWTNCTLSGKQTRHPASDSLDAVCEDRSLLATLLWETQRPTFRPTTVQSTTVWPRTSELPSPPTLVTPEGP
notes: Bought reagent, called 'trimeric'; not shown: C-terminal human IgG Fc tag
On to B2, for which the binding result in test [2] is on record as “binds”.

B3: human OX40L incorporated into the envelope of BC-PIV particles (ligand)
chain: MERVQPLEENVGNAARPRFERNKLLLVASVIQGLGLLLCFTYICLHFSALQVSHRYPRIQSIKVQFTEYKKEKGFILTSQKEDEIMKVQNNSVIINCDGFYLISLKGYFSQEVNISLHYQKDEEPLFQLKKVRSVNSLMVASLTYKDKVYLNVTTDNTSLDDFHVNGGELILIHQNPGEFCVL
modifications: Membrane-anchored type II protein on the BC-PIV envelope, expected as a homotrimer; one protomer is given.
notes: Whole membrane protein on virus particles coated on the ELISA plate; also called human OX40L-carrying BC-PIV
Take B3: the binding result in test [3] is “binds”.
